Measurements as given in patent US20060257938A1, “Method of screening for drugs that block ligand binding to a lipid binding protein” (priority 2005, published 2006).
Numbering of substitutions follows the chain as printed. Names may count otherwise. “And” between values parts separate entries of the source, which are not always exact repeats. Equal values may be shown once.

B1: L1P7H4: FABP probe, substitutions Y14I L38M L72W vs SEQ ID NO: 2 (protein, listed as Rattus norvegicus)
chain: AFDGTWKVDRNENIEKFMEKMGINVVKRKLGAHDNLKMTITQEGNKFTVKESSNFRNIDVVFELGVDFAYSWADGTELTGTWTMEGNKLVGKFKRVDNGKELIAVREISGNELIQTYTYEGVEAKRIFKKE
modifications: PEPTIDE (1)...(131) wild-type rat intestinal fatty acid binding protein
B2: L1P17A1: FABP probe, substitutions Y14I L72W vs SEQ ID NO: 2 (protein, listed as Rattus norvegicus)
chain: B1 chain with M38L
modifications: PEPTIDE (1)...(131) wild-type rat intestinal fatty acid binding protein
B3: L1P1C3: FABP probe, substitutions Y14M L72W vs SEQ ID NO: 2 (protein, listed as Rattus norvegicus)
chain: B1 chain with I14M, M38L
modifications: PEPTIDE (1)...(131) wild-type rat intestinal fatty acid binding protein
B4: 38Y 74F 72A (protein, listed as Rattus norvegicus)
chain: B1 chain with I14Y, M38Y, W72A, D74F
modifications: PEPTIDE (1)...(131) wild-type rat intestinal fatty acid binding protein
B5: 72G 73W 74E (protein, listed as Rattus norvegicus)
chain: B1 chain with I14Y, M38L, W72G, A73W, D74E
modifications: PEPTIDE (1)...(131) wild-type rat intestinal fatty acid binding protein
B6: 21F 78I 102F 72A (protein, listed as Rattus norvegicus)
chain: B1 chain with I14Y, M21F, M38L, W72A, L78I, L102F
modifications: PEPTIDE (1)...(131) wild-type rat intestinal fatty acid binding protein
B7: 72V 73L 74W (protein, listed as Rattus norvegicus)
chain: B1 chain with I14Y, M38L, W72V, A73L, D74W
modifications: PEPTIDE (1)...(131) wild-type rat intestinal fatty acid binding protein
B8: 72S 73W 74E (protein, listed as Rattus norvegicus)
chain: B1 chain with I14Y, M38L, W72S, A73W, D74E
modifications: PEPTIDE (1)...(131) wild-type rat intestinal fatty acid binding protein
B9: 18L 73V 72A (protein, listed as Rattus norvegicus)
chain: B1 chain with I14Y, M18L, M38L, W72A, A73V
modifications: PEPTIDE (1)...(131) wild-type rat intestinal fatty acid binding protein
B10: 72A 73W 74E (protein, listed as Rattus norvegicus)
chain: B1 chain with I14Y, M38L, W72A, A73W, D74E
modifications: PEPTIDE (1)...(131) wild-type rat intestinal fatty acid binding protein
B11: 60T 104T 115W 74F 72A (protein, listed as Rattus norvegicus)
chain: B1 chain with I14Y, M38L, V60T, W72A, D74F, A104T, Q115W
modifications: PEPTIDE (1)...(131) wild-type rat intestinal fatty acid binding protein
B12: 72T 73W 74S (protein, listed as Rattus norvegicus)
chain: B1 chain with I14Y, M38L, W72T, A73W, D74S
modifications: PEPTIDE (1)...(131) wild-type rat intestinal fatty acid binding protein
B13: 73W 74I (protein, listed as Rattus norvegicus)
chain: B1 chain with I14Y, M38L, W72L, A73W, D74I
modifications: PEPTIDE (1)...(131) wild-type rat intestinal fatty acid binding protein
B14: 73W 74T (protein, listed as Rattus norvegicus)
chain: B1 chain with I14Y, M38L, W72L, A73W, D74T
modifications: PEPTIDE (1)...(131) wild-type rat intestinal fatty acid binding protein

Assay: Probe fluorescence ratio response to arachidonic acid relative to ADIFAB2
Format: binding
Conditions: Table 4; Arachidonic acid
How it was run: (§1)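 Each fatty acid's response was expressed relative to ADIFAB2, the rI-FABP-L72A probe, as ΔR/ΔRreference. ΔR is the change in the background-corrected two-wavelength intensity ratio R=Fλ1/Fλ2 from its analyte-free baseline R0. Emission was read near about 420-480 nm for unbound and about 495-580 nm for FFA-bound probe.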

Molecule	ΔR/DRAΔ2 AA
B1	−1.0
B2	−0.8
B3	−0.9

Same assay, conditions: arachidonic acid; response relative to ADIFAB2

Molecule	DR/DR AA
B4	0.605
B5	4.229
B6	4.836
B7	0.500
B8	3.751
B9	0.615 and 0.475
B10	4.093
B11	0.873
B12	4.129
B13	0.757
B14	1.456

Assay: Probe fluorescence ratio response to linolenic acid relative to ADIFAB2
Format: binding
Conditions: Table 4
How it was run: as §1

Molecule	ΔR/DRAΔ2 LNA
B1	−1.1
B2	−0.9
B3	−1.0

Same assay, conditions: response relative to ADIFAB2

Molecule	DR/DR LNA
B4	1.166
B5	5.501
B6	3.006
B7	1.209
B8	4.799
B10	5.422
B11	2.017
B12	4.826
B13	1.325
B14	3.286

Assay: Probe fluorescence ratio response to oleic acid relative to ADIFAB2
Format: binding
Conditions: Table 4
How it was run: as §1

Molecule	ΔR/DRAΔ2 OA
B1	−1.4
B2	−1.2
B3	−1.3

Same assay, conditions: response relative to ADIFAB2

Molecule	DR/DR OA
B4	0.646
B5	2.755
B6	3.312
B7	0.648
B8	3.212
B10	3.277
B11	1.149
B12	4.177
B13	0.912
B14	1.902

Assay: Probe fluorescence ratio response to palmitoleic acid relative to ADIFAB2
Format: binding
Conditions: response relative to ADIFAB2
From the text: (§2) In an alternate preferred embodiment, the protein is rI-FABP that has Ala substituted for Leu at position 72 (rI-FABP-L72A) with the resulting probe named ADIFAB2. […] Other probes useful in embodiments of the invention are shown in Tables 1-6 and are also described in U.S. application Ser. No. 11/085,792, filed Mar. 21, 2005 which is incorporated herein by reference. The indicated substitutions are with reference to the ADIFAB protein of SEQ ID NO: 2.
(§3) ADIFAB2 also has an altered spectral response, making it especially useful for measurements of FFAu in blood samples (Apple et al, Clinical Proteomics, (2004) 1:41-44, U.S. patent application Ser. No. 10/670,958). The wavelengths at the maximum intensities emitted by these fluorescently-labeled I-FABP's in the absence of FFA is about 420 to 480 nm. The emission wavelengths at the maximum intensities emitted by these fluorescently-labeled I-FABP's with FFA bound are between about 495 to 580 nm. Experiments typically involve measuring the fluorescence response within both emission maxima or at wavelengths for which the effect of interfering molecules such as hemoglobin can be eliminated as described in U.S. application Ser. No. 10/670958 and PCT/US2004/030521 and the calculation of the ratio ‘R’ of the two fluorescence intensities. The baseline value for this ratio, measured in the absence of analyte, is designated R0.
(§4) The intensity ratio (“R” value) is determined as follows. The ratio is calculated using the following formula: R=Fλ1/Fλ2 wherein, Fλ1 is the measured fluorescence intensities (intensity of sample with probe present minus intensity of sample without probe present) at wavelength 1 and Fλ2 is the measured fluorescence intensities (intensity of sample with probe present minus intensity of sample without probe present) at wavelength 2. Then, for a given probe, ΔR, the difference in R value between the measurement in the presence of the test compound (agent) and in the absence of the test compound (agent), is calculated as follows: ΔR=R+agent−R0 In some embodiments, the ΔR value may then be compared to some reference, for example, an agent with a known affinity for a given probe, by ΔR/ΔRreference. Measurements of fluorescence intensities are obtained using standard techniques.

Molecule	DR/DR POA
B4	1.514
B5	6.069
B6	2.788
B7	1.710
B8	6.109
B10	6.615
B11	2.511
B12	5.826
B13	2.697
B14	5.818

Assay: Probe fluorescence ratio response to stearic acid relative to ADIFAB2
Format: binding
Conditions: response relative to ADIFAB2
From the text: as §2, §3, §4

Molecule	DR/DR SA
B4	0.362
B5	0.955
B6	2.367
B7	0.348
B8	1.285
B9	0.359 and 0.427
B10	1.289
B11	0.633
B12	1.620
B13	0.423
B14	0.726

Assay: Probe fluorescence ratio response to linoleic acid relative to ADIFAB2
Format: binding
Conditions: Table 4
How it was run: as §1

Molecule	ΔR/DRAΔ2 LA
B1	−1.3
B2	−1.0
B3	−1.1

Same assay, conditions: response relative to ADIFAB2

Molecule	DR/DR LA
B4	0.926
B5	5.045
B6	2.872
B7	1.225
B8	4.079
B10	4.686
B11	1.609
B12	4.612
B13	1.130
B14	2.480

Assay: Probe fluorescence ratio response to palmitic acid relative to ADIFAB2
Format: binding
Conditions: Table 4
How it was run: as §1

Molecule	ΔR/DRAΔ2 PA
B1	−0.6
B2	−0.4
B3	−0.4

Same assay, conditions: response relative to ADIFAB2

Molecule	DR/DR PA
B4	1.397
B5	3.944
B6	2.383
B7	1.276
B8	4.210
B10	4.937
B11	1.920
B12	4.155
B13	1.884
B14	3.883
